B1: DL1 (telomeric D-loop) (structured_DNA)
DNA 1: CACCATCCAGTTCTCTTTTGAGAACTGGATGGTGTTAGGGTTAGGGTTAGGGTTAGGGTTAACGCTC
DNA 2: TCAAGCTCGGTCTGCAGTCAGGATGATTGTGAGCGTTAACCCTAACCCTAACCCTAACCCTAATCTGCACTCGAGACTCACGTCCTGGTCACG
DNA 3: CGTGACCAGGACGTGAGTCTCGAGTGCAGACCTTTTTTTTTTTTTTTTTTTTTTTTTTTTTTTACAATCATCCTGACTGCAGACCGAGCTTGA
B2: DL4 (telomeric D-loop with two 8-oxoG) (structured_DNA)
DNA 1: B1 DNA 1
DNA 2: B1 DNA 2
DNA 3: B1 DNA 3
modifications: 8-oxo-dG at positions 39 and 57 of strand 1 (written as G)
B3: Recombinant histidine-tagged human TRF2 (natural protein, UniProt Q15554 1-542, looked up)
chain: MAAGAGTAGPASGPGVVRDPAASQPRKRPGREGGEGARRSDTMAGGGGSSDGSGRAAGRRASRSSGRARRGRHEPGLGGPAERGAGEARLEEAVNRWVLKFYFHEALRAFRGSRYGDFRQIRDIMQALLVRPLGKEHTVSRLLRVMQCLSRIEEGENLDCSFDMEAELTPLESAINVLEMIKTEFTLTEAVVESSRKLVKEAAVIICIKNKEFEKASKILKKHMSKDPTTQKLRNDLLNIIREKNLAHPVIQNFSYETFQQKMLRFLESHLDDAEPYLLTMAKKALKSESAASSTGKEDKQPAPGPVEKPPREPARQLRNPPTTIGMMTLKAAFKTLSGAQDSEAAFAKLDQKDLVLPTQALPASPALKNKRPRKDENESSAPADGEGGSELQPKNKRMTISRLVLEEDSQSTEPSAGLNSSQEAASAPPSKPTVLNQPLPGEKNPKVPKGKWNSSNGVEEKETWVEEDELFQVQAAPDEDSTTNITKKQKWTVEESEWVKAGVQKYGEGNWAAISKNYPFVNRTAVMIKDRWRTMKRLGMN

Experiments:
TRF1 [1] = biological target: T1, TRF1 (Homo sapiens, UniProt P54274 1-439); test: EMSA; text gives ~50 nM; EMSA buffer, pH and temperature not given in the material
RECQL1 = RECQL1 (Homo sapiens, UniProt P46063 1-649); test: EMSA; EMSA buffer, pH and temperature not given in the material
TRF2 [2] = biological target: T2, TRF2 (Homo sapiens, UniProt Q15554 1-542); test: EMSA; text gives ~100 nM, binds weakly; EMSA buffer, pH and temperature not given in the material
TRF2 [3] = biological target: T2, TRF2; test: EMSA; EMSA buffer, pH and temperature not given in the material
TRF1 [4] = biological target: T1, TRF1; test: as above
[5] = biological target: T3, Recombinant His-tagged RECQL1 (human, UniProt P46063 1-649); test: cell-based or functional assay
T3 sequence (looked up): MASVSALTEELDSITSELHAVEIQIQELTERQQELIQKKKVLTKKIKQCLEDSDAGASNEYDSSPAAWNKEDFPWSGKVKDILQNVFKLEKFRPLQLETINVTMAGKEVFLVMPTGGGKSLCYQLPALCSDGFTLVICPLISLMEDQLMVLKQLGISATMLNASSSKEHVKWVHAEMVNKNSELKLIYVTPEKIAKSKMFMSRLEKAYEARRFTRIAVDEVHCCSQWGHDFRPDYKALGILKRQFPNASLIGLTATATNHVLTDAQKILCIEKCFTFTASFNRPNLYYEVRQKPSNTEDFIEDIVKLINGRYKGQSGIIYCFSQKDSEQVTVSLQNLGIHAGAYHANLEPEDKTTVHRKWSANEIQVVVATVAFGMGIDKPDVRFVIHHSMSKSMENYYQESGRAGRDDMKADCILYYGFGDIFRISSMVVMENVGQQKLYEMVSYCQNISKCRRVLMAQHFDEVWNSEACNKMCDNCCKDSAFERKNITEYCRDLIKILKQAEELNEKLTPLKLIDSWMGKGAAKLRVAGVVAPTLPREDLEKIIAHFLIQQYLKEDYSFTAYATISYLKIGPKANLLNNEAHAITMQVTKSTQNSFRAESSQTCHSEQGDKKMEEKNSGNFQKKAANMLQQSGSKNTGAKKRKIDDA

T1 sequence (P54274 whole entry): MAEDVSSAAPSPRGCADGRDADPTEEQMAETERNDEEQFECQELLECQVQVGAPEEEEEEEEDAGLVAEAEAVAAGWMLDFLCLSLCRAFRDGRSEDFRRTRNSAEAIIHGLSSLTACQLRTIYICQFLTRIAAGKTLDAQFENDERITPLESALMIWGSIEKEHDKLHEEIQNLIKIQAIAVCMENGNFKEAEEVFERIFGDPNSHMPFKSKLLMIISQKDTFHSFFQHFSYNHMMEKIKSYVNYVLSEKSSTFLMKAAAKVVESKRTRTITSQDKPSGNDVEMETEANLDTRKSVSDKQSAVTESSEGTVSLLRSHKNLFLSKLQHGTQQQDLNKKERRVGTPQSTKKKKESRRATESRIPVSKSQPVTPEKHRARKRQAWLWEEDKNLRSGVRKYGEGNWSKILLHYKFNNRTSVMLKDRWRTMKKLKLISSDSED

Binder | Kd (TRF1 [1]) | Kd (RECQL1) | Kd (TRF2 [2]) | Kd (TRF2 [3]) | Kd (TRF1 [4]) | helicase activity of RECQL1 left on the 8-oxoguanine telomeric D-loop DL4 with TRF2 at a molar ratio of 1:4 (RECQL1:TRF2) [5]
B1 | 40 ± 5 nM | 10 ± 2.5 nM | 90 ± 12.5 nM |  |  | 
B2 |  | 12.5 ± 5 nM |  | 125 ± 10 nM | 50 ± 10 nM | 
B3 |  |  |  |  |  | ~40%

Source: publication PMC4027191 (Nucleic Acids Research, 2014)
